Publication PMC314469, “Protein Interaction Networks by Proteome Peptide Scanning” (PLoS Biology, 2004)

T1: Boi2 SH3 (BOI2_YEAST), P39969
T1 chain: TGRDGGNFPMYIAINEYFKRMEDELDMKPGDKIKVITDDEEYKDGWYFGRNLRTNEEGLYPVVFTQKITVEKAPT

T2: Yfr024 SH3 (LSB3_YEAST), P43603
T2 chain: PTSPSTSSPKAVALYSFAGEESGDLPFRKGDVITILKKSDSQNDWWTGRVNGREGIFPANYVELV

T3: Myo5 SH3 (MYO5_YEAST), Q04439
T3 chain: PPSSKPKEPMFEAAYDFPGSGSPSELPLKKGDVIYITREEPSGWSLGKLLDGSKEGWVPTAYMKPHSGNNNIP

T4: Rvs167 SH3 (RV167_YEAST), P39743
T4 chain: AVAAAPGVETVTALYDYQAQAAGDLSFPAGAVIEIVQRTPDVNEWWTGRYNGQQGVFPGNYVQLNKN

T5: Boi1 SH3 (BOI1_YEAST), P38041
T5 chain: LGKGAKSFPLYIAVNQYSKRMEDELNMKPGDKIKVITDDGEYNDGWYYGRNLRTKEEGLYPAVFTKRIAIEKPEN

T6: Yhr016c SH3 (YSC84_YEAST), P32793
T6 chain: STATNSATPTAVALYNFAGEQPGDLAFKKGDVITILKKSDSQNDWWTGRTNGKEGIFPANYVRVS


Tests used:
Assay in all cases: SPOT array
[1] = target: T1, Boi2 SH3 (BOI2_YEAST), P39969
[2] = target: T2, Yfr024 SH3 (LSB3_YEAST), P43603
[3] = target: T3, Myo5 SH3 (MYO5_YEAST), Q04439
[4] = target: T4, Rvs167 SH3 (RV167_YEAST), P39743
[5] = target: Sho1 SH3 (SHO1_YEAST), P40073
Sequence of Sho1 SH3 (SHO1_YEAST), P40073 (P40073 295-366): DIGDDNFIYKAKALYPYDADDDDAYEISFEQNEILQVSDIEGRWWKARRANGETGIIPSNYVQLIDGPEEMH

[6] = target: T5, Boi1 SH3 (BOI1_YEAST), P38041
[7] = target: T6, Yhr016c SH3 (YSC84_YEAST), P32793

normalised SPOT signal, Boehringer light units (BLU); mean over the file's lines of this peptide [1] | normalised SPOT signal, Boehringer light units (BLU); mean over the file's lines of this peptide [2] | normalised SPOT signal, Boehringer light units (BLU); mean over the file's lines of this peptide [3] | normalised SPOT signal, Boehringer light units (BLU); mean over the file's lines of this peptide [4] | normalised SPOT signal, Boehringer light units (BLU); mean over the file's lines of this peptide [5] | normalised SPOT signal, Boehringer light units (BLU); mean over the file's lines of this peptide [6] | normalised SPOT signal, Boehringer light units (BLU); mean over the file's lines of this peptide [7] | Binder
50.1 | 519 | 337 | 1120 | 41.8 | 718 | 245 | RLLSKYRPSSPIIL [YOR347C 411-424]
41.1 | 395 | 824 | 280 | 27000 | 1760 | 50.6 | RRLKKNLPSLPTPV [YOR127W 138-151]
20.1 | 2640 | 2010 | 6330 | 85.3 | 89 | 772 | RRKLRTVPGVPLIH [YOR004W 127-140]
16 | 667 | 1290 | 51.8 | 65.3 | 299 | 43.4 | RRHNRQHPPYPHSG [YNL165W 14-27]
9 | 570 | 308 | 106 | 123 | 920 | 60.5 | RRIRKEHPGEPNVI [YOR090C 334-347]
41.1 | 819 | 1510 | 423 | 76.1 | 137 | 104 | RRRTRLRPPTPLSQ [YPL269W 616-629]
35.4 | 78.9 | 187 | 19.3 | 18 | 28.1 | 21.1 | RTPSKPDPMEPENT [YOR196C 194-207]
28 | 66.3 | 129 | 110 | 47.9 | 326 | 29.3 | RLPSKTDPLDPHIK [YML050W 46-59]

The remaining lines, values behind:

Binder | normalised SPOT signal, Boehringer light units (BLU); mean over the file's lines of this peptide [1] | normalised SPOT signal, Boehringer light units (BLU); mean over the file's lines of this peptide [2] | normalised SPOT signal, Boehringer light units (BLU); mean over the file's lines of this peptide [3] | normalised SPOT signal, Boehringer light units (BLU); mean over the file's lines of this peptide [4] | normalised SPOT signal, Boehringer light units (BLU); mean over the file's lines of this peptide [5] | normalised SPOT signal, Boehringer light units (BLU); mean over the file's lines of this peptide [6] | normalised SPOT signal, Boehringer light units (BLU); mean over the file's lines of this peptide [7]
RLLFRSLPPHPASL [YCR022C 77-90] | 67.2 | 3510 | 746 | 587 | 571 | 465 | 1600
RLVSKYRPNSPIIL [YAL038W 409-422] | 74 | 565 | 286 | 233 | 42.5 | 246 | 108
RMQQKNSPAFPTHS [YGR056W 183-196] | 227 | 4550 | 1280 | 1150 | 1220 | 4830 | 1510
RSRSKKDPGIPSNF [YER006W 41-54] | 6.9 | 360 | 800 | 159 | 118 | 585 | 52.3
RTFFKLPPNLPEAE [YHR017W 94-107] | 5.1 | 1050 | 2610 | 204 | 154 | 220 | 32.8
RPVYRLKPNAPFQY [YLR072W 370-383] | 78.2 | 583 | 210 | 148 | 60.1 | 72 | 129
RYSFKLLPPQPGSK [YER114C 841-854] | 47.8 | 352 | 190 | 84 | 15500 | 796 | 23.5
RLVNKLLPPHPFAD [YGL143C 139-152] | 28.5 | 187 | 289 | 144 | 20300 | 440 | 24.8
